What all share (assay): ELISA
Assay [1] deals with T1, recombinant human Axl-Fc protein (R and D Systems, cat N° 154-AL) (UniProt P30530 26-451).
In assay [2] the target is T1, recombinant human Axl-Fc protein (R and …). This is another data set of the same source.
Assay [3] shares this target. The source holds these as a separate data set.

Numbering of substitutions follows the chain as printed. Read-outs that look alike come from different tables or passages of the source.

T1 sequence (P30530 26-451 D266N): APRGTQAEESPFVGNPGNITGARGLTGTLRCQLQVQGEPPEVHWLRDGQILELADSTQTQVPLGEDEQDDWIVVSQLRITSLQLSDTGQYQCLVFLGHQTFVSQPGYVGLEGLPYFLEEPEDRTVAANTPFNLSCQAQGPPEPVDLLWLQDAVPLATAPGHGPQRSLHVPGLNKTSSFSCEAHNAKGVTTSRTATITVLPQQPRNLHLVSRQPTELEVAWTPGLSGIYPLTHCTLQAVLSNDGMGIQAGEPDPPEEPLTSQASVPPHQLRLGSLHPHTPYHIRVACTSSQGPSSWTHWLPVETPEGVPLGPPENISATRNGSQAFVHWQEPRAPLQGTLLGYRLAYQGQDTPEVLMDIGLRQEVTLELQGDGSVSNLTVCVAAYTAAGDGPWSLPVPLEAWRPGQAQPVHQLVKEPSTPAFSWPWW

B1: 110D7 anti-Axl monoclonal antibody (antibody, V domains shown)
VH: EVKLVESGGGLVQPGGSLKLSCATSGFTFSDYYMYWVRQTPEKRLEWVAYISNGGGSTYYPDTVKGRFTMSRDNAKNTLYLQMSRLKSEDTAMYYCARLSFYAMDYWGQGTSVTVSS
VL: DIVMTQSHKFMSTSVGDRVSITCKASQDVTTAVAWYQQKPGQSPKLLIYWASTRHTGVPDRFTGSGSGTDYTLTISSVQAEDLALYYCQQHYRIPFTFGSGTKLEIK
On to B1, for which the EC50 in assay [1] is 1.35 nM.

B2: 1024G11 anti-Axl monoclonal antibody (antibody, V domains shown)
VH: EVKLVESGGGLVQPGGSLNLSCAASGFTFSSYSMSWVRQTPEKRLEWVAFISNGGGRTYYPDTVKGRFTFSRDNARNTLYLQMSSLNSEDTAMYFCARGTTESYYAMDYWGQGTSVTVSS
VL: B1 VL with T30I, Y87F, Y92L, R93S, I94T, F96L, S100A, I106L
Turning to B2, the concentration for a half-maximal effect (EC50) in assay [2] was 3.57 nM.

B3: 1003A2 anti-Axl monoclonal antibody (antibody, V domains shown)
VH: B2 VH with N19K, S30N, F50Y, V64I, F70L, A75D, N87K, F95Y, M107L
VL: B1 VL with V15L, V19I, T30I, T72N, Y92F, R93S, I94T, F96L, S100A, I106L
In the case of B3, the concentration giving a half-maximal response (EC50) in assay [3] came out at 2.35 nM.

For the origin of these results see patent US20160046725A1 (published 2016).
